Source: the supplement of paper PMC9170038

system: K4 kissing-loop RNA reporter; test: apparent KD of K4 kissing-loop reporter; higher = weaker reporter binding; conditions: Eterna round: R107; input ligand: theophylline 20 uM
Protocol: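 RNA-MaP round R107: designed RNA switches with theophylline, tryptophan, arginine or FMN aptamers are transcribed on-chip within common flanks. They are titrated with a labelled K4 kissing-loop RNA reporter in RNA-MaP buffer (100 mM Tris pH 7.5, 80 mM KCl, 4 mM MgCl2), without ligand or with the indicated ligand. Median apparent KD per design.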
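Further: bound reporter read as fluorescence of individual clusters on recovered sequencing chips by microscopy, with normalized cluster intensities fitted with a binding model.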

| Sequence | apparent KD of K4 kissing-loop reporter [nM] |
| --- | --- |
| UCAGUUCACGGGCGCCGCAAACCGCAGGAUACCAGUCACAUCGCUGACCCUUGGCAGCCUAUGGACUAGUGAUGUUAGUCCAGGA [theeternabot_sameState_KL_Theo_A_37] | 117 |
| UGAUAGGACAGAAGGAGCGGAAGUGAUGUUUCCAAUGGAAUUAAGGUGUCAAAGACACCCUUCCAGGUAGGUCGCUGUCCUAUCU [ArgBX 18 #Palindromic #SwitchBubble #StaticStem] | 159 |
| AUGGGUCCACGAAGGAGCGCCGUGGAGUGAUGUUCCGGUUAGAUCCAGUGAUGUUGGGCCCGGCAGGUAGGUCGCGUGGACUCAU [Exclusion Arginine B GF 23] | 729 |
| UCUAUAGUUAGAGGAUAUUGAAUUAGAGUGAUGUUCUAUAGAAGACCAGUGAUGUUGGAUAGUAUACAAGAAGGCUGAUCUAUAG [Same State FMN B GF 1] | 883 |
| AAUGUUAGCAAAGGAUAUCUGAUGAGUGAUGUUUACGGACCGUUUGCGUUUCAUUACACGCAGCUCAGAGAAGGUUGGUGUGCAG [theeternabot_exclusion_KL_FMN_B_49] | 890 |
| UGUCAUUGGUCUGAUACCAGAAGAAAUCUGGAGUGAUGUUCCGAGUACGACAAAAGUCGCUUCCCUUGGCAGCAGACCGAUGACU [TheoBS 22 #SwitchBubble 13 #StaticStem] | 161 |
| GGAUAGGACAGAGGAUAUCUCUGAGGCAAGAAAACUUGUCUCUAAAGGGAUGACUCAGUGAUGUUGAGAGAAGGCUGUCCUAUCG [FmnBX 11 - #SwitchBubble #StaticStem] | 140 |
| UUGGGCGAGGUAACGUGGAUAUCUCGUCGCAAGGAUAUCUGGAAACAGAGAAGGUGCUACAUUACCGGCAGUGAUGUUGCUGACC | 347 |
| UACUCUCCUCCUGAUACCAGAUAAAUAUUAAUACAUUAGUGAUGUUAAUGCCCAAACCCGAUCCCUUGGCAGCAGAAUAUGCAGG [theeternabot_sameState_KL_Theo_B_25] | 258 |
| AUUUUAGAGUGAUGUUCUAUUUGAUCAGAUACCAGACAAUUAUAAGUCCCUUGGCAGCUGUAGCCGAUAAAUUUAAUUAAUUUAA [JR_ExcTheophyA_Sub012] | 205 |
| UAGUCCUCUUCUUAUUUAUUCCCUAAUGCUAAGGAUAUCCGAAUUCGGAGAAGGUAGUGAUGUUACUUGAAGGGACAUAUUUAUU [AK6 Exc FMN A] | 771 |

same assay, conditions: Eterna round: R107; input ligand: tryptophan 2.4 mM

| Sequence | apparent KD of K4 kissing-loop reporter [nM] |
| --- | --- |
| AGUGAUGUGGGAAGGAGCGCUACAAGACUUCAGUGAUGUUGAAGUGAUGUUUUAGUGUUGUAGCAGGUAGGUCGCCUAGAUGUUA [KL-XARG-B10] | 43.7 |
| GUAGUCGUACCUUCAGUGAUGUUGAAGGAUACCAGAUGUUACCACAUCCCUUGGCAGCCUUGGGAUAACAGUGAGUUGGAAUAUG [Soonusa] | 160 |
| GGAUCCACCAGUGAUGUUGGAGAAAACUUCAAGGAUAUGACGAAAGUCAGAAGGUGGUAGACUGGACAAAGUCCGGUAGGAUCCA [FmnA10 U29+A78] | 528 |
| GCGCGUCAUGUCAGCGGUGACUAUGUCGAUACCAGCGCCGCAAGGCGCCCUUGGCAGCGACGCGCUGGAGUGAUGUUCCAGCGUG [#2 Exclusion - Theophylline A Attempt #10 (HarryS)] | 124 |
| GGGCGCGGCGCGGCCGCCACUGGGCCUGGGCGCUCGCUGAGUGAUGUUCGCCGGCGGCUGGGUCGUAGGACCGGGUGCCGGCUGG [BDazzled - #3 SS Tryptophan B] | 452 |
| AAGUUGAACUGAAGGAGCGAGAAAUAGAAUGUAAGAAUAUAUGCUAGUGAUGUUAGAAAUUCUCAGGUAGGUCGCAGUAAGAUUU [V1.1] | 192 |
| ACAGUCCCGCAUGGUGCGAACGAGAGAUGGCGAGGACCGGUACGGCCGCCACUCGAACAAGUGAUGUUUGAUAUCAUUUUUCUAC [theeternabot_sameState_KL_Trp_A_10] | 85.4 |
| UAAGAGGACCACUGCGAGAGUCCUCGAAUACGAGGACCGGUACGGCCGCCACUCGAUAACUUGCAGUGAUGUUGCAAGUAAGAAU [BrourdMod 3 - Jieux - Same State Tryptophan A] | 81 |
| CUGUUGUAGACUGAUACCAGUCUCACAGCAGAUGUGUGGGACUUAGUGAUGUUAAGUACCGACCCUUGGCAGCAGUCUACGACCU [Theo B SS t6] | 394 |
| GUAGUGAUGUUACGAGUAUUCCAUCGUAGAGAGGAUAUGGUUCCUUCCAGAAGGUUCUGAGAAUUAAAAUUUGAUAAAAUGAGGG [Exclusion FMN A GF 2] | 252 |
| UUGUUUGGUUGAGAGGUUGGGCGAGAUGAUACCAGUAUAGUAUUGUACCCUUGGCAGCAUAUGAGAGAUAUAGUGAUGUUGUAUG [SSTheophA.X] | 411 |
| GGCGGGUGCCCGUAAGGGUGCCCGGCCGAUACCAGCGCGACGGCGCGCCCUUGGCAGCGGCGCCGAGUGAUGUUCGGCCUGCCGU [#2 Same State - Theophylline A Attempt #24 (HarryS)] | 151 |
| GAGAAUCUCACGGCCGCCACUCACCUGUUAAUUGACAUCGACGGCCUCGACCAGUGAUGUUGUGUGAGGACCGGGUGUCUCGUGU [theeternabot_exclusion_KL_Trp_B_32] | 423 |
| AUGGGCACGUCGGCCGCCACUACACGGUCCCGCGAGGGCCAGUGAUGUUGGUCGACGUGCCGUUGUAGGACCGGGACGUGGCUGU [Teatondi] | 83.3 |
| AGUGAUGUUUUUUUUAAGAGUGAUGUUUUUCGAGGACCGGUACGGCCGCCACUCGAGUGAUGAGUGAGGUGUGGUGAUGUUUAGU [#09 K4 Tryptophan A Exclusion] | 205 |
| UAAAUAAUAAAACGAGUGAUGUUCGACGAUACCAGCCUCGAUAGAGGCCCUUGGCAGCGUAUGUGAUCACUAAGCCAAGGAAUAA [#02 K4 Theophylline A Exclusion] | 132 |
| GGUGCGCUGUUAGUGAUGUUAACCGAGGAUACCAGUUAGGCGUCUAACCCUUGGCAGCCUCUCUGGUCUCAUCAACGUUGUGCUA [theeternabot_exclusion_KL_Theo_A_37] | 463 |
| UUACCAAGUGAUGUUUGGAAAUAUCCUAGGCAGGAUAUGCGGAAACGCAGAAGGGCCACCUGAUAGUGAAGGAAACUUCGCUAUC [Ex FMN A 1] | 151 |
| GUAGUGAUGUUACGAAUAUUCCAUCAUAGAGAGGAUAUUGUUCCUUCGAGAAGGUUCUGAGAAUUAAAAUUUAAUAAAAUGAAGG [Exclusion FMN A GF 1] | 160 |
| AUUAAUAACAGAGGAUAUGCAUUUUUAUUAUUUUUAAAUAUUAAAUGCAGUGAUGUUGCAUAUUAAGCAGAAGGCUGAUUUAUUU [JR_SSFMNB_Sub012] | 147 |
| GUGCGGCUAGUGAUGUUGGUUGCGUGGGAAGGAGCGCAGAAACAUGCAGGUAGGUCGCCCACAUCUCGGAUAAGAGAUUAAUUCC [Arorso] | 244 |

| Sequence | apparent KD of K4 kissing-loop reporter [nM] |
| --- | --- |
| UGGAGUUGACGAAAAGUCAACUCCUGAGAUACCAGUGACGAAGGUCACCCUUGGCAGCUCACUGCUAGUGAUGUUGGUAGUUAAA [whbob_SS_Theo_A_w50] | 829 |
| GCUAUGGUAGGAAGGAGCGCUACUUUAUUUUUACGAGUGAUGUUCGGUAGUAGAGUGUUAAAGCAGGUAGGUCGCCUACUAUAGC [Arginine B K4 18] | 146 |
| UUCUACGAGUGAUGUUCGUAGUGUAAUAGUUAGGAUAUCGUUUUUUCGAGAAGGAACUUCGAAGUGAUACGAAAGUAUCGCUUCG [FMN A 11] | 136 |
| CGCGCCCAGCCGGAUACCAGUGACCCGCUGGGAACCGCGGGCCCAGAGUGAUGUUCGGGACACCCUUGGCAGCCGCCUGGGCGGU [#2 Same State - Theophylline B Attempt #10 (HarryS)] | 1570 |
| GGUAUCUAUACAGAUACCAGUCGUACAGCUGCAUUACAGGUUAGUGAUGUUAACCUGUACGACCCUUGGCAGCUGUAUAGUAGUA [Theo B Ex t2b] | 94 |
| UUUAUAAAGUCGGCCGCCACUGGAUUUAUAUUUGUUUCGUCUGGAUCAAAGUGAUGUUUUGAGUCCAGGACCGGGACAUUUGUUA [whbob_Ex_Tryp_B_w37] | 93.2 |
| AUAGGAGUGAUGUUCCUUAGUCCCUCCGAUACCAGUAUGGAAACAUACCCUUGGCAGCGGUGGACCGCAGAUUAGGAAACUAGUC [Theophylline A K4 4] | 206 |
| GGCGGCCGCGCGCAAGCGCGGCCGGCCGAUACCAGCGCGCCGGCGCGCCCUUGGCAGCGGCGCCGAGUGAUGUUCGGCCUGCCGG [#2 Same State - Theophylline A Attempt #9 (HarryS)] | 401 |
| CGCAGUGAUGUUGCUAUUAUUCUUGGUUAACGAGGACCGGUACGGCCGCCACUCGAUUUCUAUCUAGUCCAGUGUUUUUUUGAGU [whbob_EX_Tryp_A_t7] | 250 |
| AAGCCCAGUGAUGUUGGAAGCGCGUACGAUACCAGCGAAUCGGAACGCCCUUGGCAGCGUACAGAGUUGGCGGAAGAUAGGACAG [theeternabot_sameState_KL_Theo_A_14] | 527 |
| UCAGUUCACGGGCGCCGCAAACCGCAGGAUACCAGUCACAUCGCUGACCCUUGGCAGCCUAUGGACUAGUGAUGUUAGUCCAGGA [theeternabot_sameState_KL_Theo_A_37] | 115 |
| UGAUAGGACAGAAGGAGCGGAAGUGAUGUUUCCAAUGGAAUUAAGGUGUCAAAGACACCCUUCCAGGUAGGUCGCUGUCCUAUCU [ArgBX 18 #Palindromic #SwitchBubble #StaticStem] | 145 |
| AUGGGUCCACGAAGGAGCGCCGUGGAGUGAUGUUCCGGUUAGAUCCAGUGAUGUUGGGCCCGGCAGGUAGGUCGCGUGGACUCAU [Exclusion Arginine B GF 23] | 533 |
| UCUAUAGUUAGAGGAUAUUGAAUUAGAGUGAUGUUCUAUAGAAGACCAGUGAUGUUGGAUAGUAUACAAGAAGGCUGAUCUAUAG [Same State FMN B GF 1] | 499 |
| AAUGUUAGCAAAGGAUAUCUGAUGAGUGAUGUUUACGGACCGUUUGCGUUUCAUUACACGCAGCUCAGAGAAGGUUGGUGUGCAG [theeternabot_exclusion_KL_FMN_B_49] | 961 |
| UGUCAUUGGUCUGAUACCAGAAGAAAUCUGGAGUGAUGUUCCGAGUACGACAAAAGUCGCUUCCCUUGGCAGCAGACCGAUGACU [TheoBS 22 #SwitchBubble 13 #StaticStem] | 207 |
| GGAUAGGACAGAGGAUAUCUCUGAGGCAAGAAAACUUGUCUCUAAAGGGAUGACUCAGUGAUGUUGAGAGAAGGCUGUCCUAUCG [FmnBX 11 - #SwitchBubble #StaticStem] | 149 |
| UUGGGCGAGGUAACGUGGAUAUCUCGUCGCAAGGAUAUCUGGAAACAGAGAAGGUGCUACAUUACCGGCAGUGAUGUUGCUGACC | 121 |
| UACUCUCCUCCUGAUACCAGAUAAAUAUUAAUACAUUAGUGAUGUUAAUGCCCAAACCCGAUCCCUUGGCAGCAGAAUAUGCAGG [theeternabot_sameState_KL_Theo_B_25] | 126 |
| AUUUUAGAGUGAUGUUCUAUUUGAUCAGAUACCAGACAAUUAUAAGUCCCUUGGCAGCUGUAGCCGAUAAAUUUAAUUAAUUUAA [JR_ExcTheophyA_Sub012] | 130 |
| UAGUCCUCUUCUUAUUUAUUCCCUAAUGCUAAGGAUAUCCGAAUUCGGAGAAGGUAGUGAUGUUACUUGAAGGGACAUAUUUAUU [AK6 Exc FMN A] | 617 |
